According to PMC7194074, “A Trichome-Specific, Plastid-Localized Tanacetum cinerariifolium Nudix Protein Hydrolyzes the Natural Pyrethrin Pesticide Biosynthetic Intermediate trans-Chrysanthemyl Diphosphate” (Frontiers in Plant Science, 2020):

Tested on: CC(C)=C[C@@H]1[C@@H](COP(=O)(O)OP(=O)(O)O)C1(C)C
Assay: purified protein
Settings: 100 mM Tris pH 7.5, 5 mM MgCl2, CPP 0.1 to 5 μM, 5 min, 1 μM enzyme stated for the general reactions

In the case of TcNudix1 (Tanacetum cinerariifolium), the Km was 0.137 ± 0.05 µM.
